Test results as given in patent publication US20250340631A1 (HARBOUR BIOMED SHANGHAI, published 2025).
Like-named read-outs stand apart in the source and are kept apart here.

Legend:
[1] = biological target: human CLDN18.2 (human); assay: cell-based or functional assay
[2] = biological target: T1, human CD3 on Jurkat cells (human, UniProt P07766 23-207); assay: FACS on Jurkat cells (CD3)
T1 construct: whole, on cells; on cells it stands in the whole CD3/TCR complex; also called CD3-expressing cells
Protocol: (§1) Antibodies were assayed for binding affinity by FACS. Test cells include HEK293/hCLDN18.2, HEK293/hCLDN18.1, NUGC4_D8 and Jurkat cells. […] The cell density was adjusted to 10⁶ cells/mL, and 50 μL of the cell suspension was added to each well of a 96-well plate. Antibodies were diluted to different concentrations with FACS buffer, and 50 μL of the antibody dilution was added to each well of the 96-well plate. After 2 h of incubation at 4° C., the plate was washed twice with FACS buffer. […] After 1 h of incubation at 4° C., the plate was washed twice with FACS buffer. The cells were resuspended in fixative solution, and then the fluorescence of the cells was monitored using an FACS instrument (ACEA NovoCyte).

[3] = biological target: T2, human CLDN18.2 (human); assay: FACS on NUGC4_D8 cells
T2 construct: the HEK293 line was made with a GenScript plasmid; also called hCLDN18.2
Protocol: as §1

[4] = biological target: CLDN18.2 of SNU620 cells (methionine to leucine at amino acid 149) (human, UniProt P56856-2 1-261); assay: cell-based or functional assay
[5] = biological target: T2, human CLDN18.2; assay: FACS on HEK293/hCLDN18.2 cells
[6] = biological target: T1, human CD3 on Jurkat cells; assay: FACS on Jurkat cells (CD3); remark: listed apart in the source
Protocol: as §1

[7] = biological target: T1, human CD3 on Jurkat cells; assay: FACS on Jurkat cells (CD3); remark: listed apart in the source
Protocol: as §1

[8] = biological target: T3, human CLDN18.1 (human, UniProt P56856 1-261); assay: FACS on HEK293/hCLDN18.1 cells
T3 construct: whole, on cells; also called hCLDN18.1
T3 sequence (P56856 whole entry): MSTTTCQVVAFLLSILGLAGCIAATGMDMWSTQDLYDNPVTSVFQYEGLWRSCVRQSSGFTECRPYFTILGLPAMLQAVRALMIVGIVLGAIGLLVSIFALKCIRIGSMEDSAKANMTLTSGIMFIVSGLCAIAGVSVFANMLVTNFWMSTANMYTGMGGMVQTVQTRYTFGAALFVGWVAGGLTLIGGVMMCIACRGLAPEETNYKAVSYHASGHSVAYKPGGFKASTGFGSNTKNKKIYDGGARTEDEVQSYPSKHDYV
Protocol: as §1

Chain of CLDN18.2 of SNU620 cells (methionine to leucine at amino acid 149) (P56856 other isoform, or with tags, fused parts or gaps limits assumed): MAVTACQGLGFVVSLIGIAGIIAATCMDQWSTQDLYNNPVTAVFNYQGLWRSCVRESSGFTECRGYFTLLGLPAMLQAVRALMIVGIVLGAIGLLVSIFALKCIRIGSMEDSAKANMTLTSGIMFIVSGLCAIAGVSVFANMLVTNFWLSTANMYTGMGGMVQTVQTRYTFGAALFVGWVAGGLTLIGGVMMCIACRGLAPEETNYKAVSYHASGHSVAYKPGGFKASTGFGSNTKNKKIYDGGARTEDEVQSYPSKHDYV
T1 sequence (P07766 23-207): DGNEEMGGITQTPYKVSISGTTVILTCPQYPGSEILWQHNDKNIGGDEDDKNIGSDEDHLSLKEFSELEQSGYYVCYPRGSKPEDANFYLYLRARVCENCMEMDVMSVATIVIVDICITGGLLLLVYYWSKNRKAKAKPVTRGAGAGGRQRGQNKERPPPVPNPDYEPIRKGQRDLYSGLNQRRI

Binder	TDCC, Titer EC50 (pM), NUGC4_D8 [1] [pM]	binding result [2]	EC50 [3] [nM]	TDCC, Titer EC50 (pM), SNU620 [4] [pM]	EC50 [5] [nM]	binding result [6]	binding result [7]	binding result [8]
PR005076 (bispecific antibody, human IgG1, lambda, L234A L235A, structure 1; CD3 Fab from PR003886, CLDN18.2 VH from PR004536; LALA) EVQLVESGGGLVQPGGSLRLSCAASGFTFSSYWMYWVRQVPGKGLVWVSHINSDGSTTQYADSVKGRFTISRDNAKNMLYLQMNSLRAEDTAVYYCARDFPVLGGSHFDFQHWGQGTLVTVSSGGGGSGGGGSGGGGSEVQLVESGGGLVQPGGSLRLSCAASGFTFSSYWMYWVRQVPGKGLVWVSHINSDGSTTQYADSVKGRFTISRDNAKNMLYLQMNSLRAEDTAVYYCARDFPVLGGSHFDFQHWGQGTLVTVSSASEPKSSDKTHTCPPCPAPEAAGGPSVFLFPPKPKDTLMISRTPEVTCVVVDVSHEDPEVKFNWYVDGVEVHNAKTKPREEQYNSTYRVVSVLTVLHQDWLNGKEYKCKVSNKALPAPIEKTISKAKGQPREPQVCTLPPSREEMTKNQVSLSCAVKGFYPSDIAVEWESNGQPENNYKTTPPVLDSDGSFFLVSKLTVDKSRWQQGNVFSCSVMHEALHNHYTQKSLSLSPGK heavy: not shown light: QAVVTQEPSLTVSPGGTVTLTCRSSTGAVTTSNYANWVQQKPGQAPRGLIGGTNKRAPWTPARFSGSLLGDKAALTLLGAQPEDEAEYFCALWYSNLWVFGGGTKLTVLGQPKAAPSVTLFPPSSEELQANKATLVCLISDFYPGAVTVAWKADSSPVKAGVETTTPSKQSNNKYAASSYLSLTPEQWKSHRSYSCQVTHEGSTVEKTVAPTECS	102	binds	–	–	–	–	–	–
PR005072 (bispecific antibody, human IgG1, lambda, L234A L235A, structure 1; CD3 Fab from PR003886, CLDN18.2 VH from PR004533; LALA) EVQLVESGGGLVQPGGSLRLSCAASGFTFSSYWMHWVRQVPGKGLVWVSRINSDGSRTIYADSVKGRFTISRDNAKNTLYLQMNSLRAEDTAVYYCARGEDHDILTGYPIRGQGTTVTVSSGGGGSGGGGSGGGGSEVQLVESGGGLVQPGGSLRLSCAASGFTFSSYWMHWVRQVPGKGLVWVSRINSDGSRTIYADSVKGRFTISRDNAKNTLYLQMNSLRAEDTAVYYCARGEDHDILTGYPIRGQGTTVTVSSASEPKSSDKTHTCPPCPAPEAAGGPSVFLFPPKPKDTLMISRTPEVTCVVVDVSHEDPEVKFNWYVDGVEVHNAKTKPREEQYNSTYRVVSVLTVLHQDWLNGKEYKCKVSNKALPAPIEKTISKAKGQPREPQVCTLPPSREEMTKNQVSLSCAVKGFYPSDIAVEWESNGQPENNYKTTPPVLDSDGSFFLVSKLTVDKSRWQQGNVFSCSVMHEALHNHYTQKSLSLSPGK heavy: not shown light: QAVVTQEPSLTVSPGGTVTLTCRSSTGAVTTSNYANWVQQKPGQAPRGLIGGTNKRAPWTPARFSGSLLGDKAALTLLGAQPEDEAEYFCALWYSNLWVFGGGTKLTVLGQPKAAPSVTLFPPSSEELQANKATLVCLISDFYPGAVTVAWKADSSPVKAGVETTTPSKQSNNKYAASSYLSLTPEQWKSHRSYSCQVTHEGSTVEKTVAPTECS	142	binds	90.7	34.5	15.7	–	–	–
PR004603 (bispecific antibody, human IgG1, lambda, L234A L235A, structure 1 (2+1 Fab-Fc-Dual VH); CD3 Fab from PR003886, CLDN18.2 VH from PR004227; IgG1 knob/hole, LALA) EVQLVESGGGLVQPGGSLRLSCAASGFTFSSYWMHWVRQAPGKGLEWVSYINNDGSSTRYADSVKGRFTISRDNAKNTLYLQMNSLRAEDTAVYYCTEAPPYGNYERDYWGQGTLVTVSSGGGGSGGGGSGGGGSEVQLVESGGGLVQPGGSLRLSCAASGFTFSSYWMHWVRQAPGKGLEWVSYINNDGSSTRYADSVKGRFTISRDNAKNTLYLQMNSLRAEDTAVYYCTEAPPYGNYERDYWGQGTLVTVSSASEPKSSDKTHTCPPCPAPEAAGGPSVFLFPPKPKDTLMISRTPEVTCVVVDVSHEDPEVKFNWYVDGVEVHNAKTKPREEQYNSTYRVVSVLTVLHQDWLNGKEYKCKVSNKALPAPIEKTISKAKGQPREPQVCTLPPSREEMTKNQVSLSCAVKGFYPSDIAVEWESNGQPENNYKTTPPVLDSDGSFFLVSKLTVDKSRWQQGNVFSCSVMHEALHNHYTQKSLSLSPGK heavy: not shown light: QAVVTQEPSLTVSPGGTVTLTCRSSTGAVTTSNYANWVQQKPGQAPRGLIGGTNKRAPWTPARFSGSLLGDKAALTLLGAQPEDEAEYFCALWYSNLWVFGGGTKLTVLGQPKAAPSVTLFPPSSEELQANKATLVCLISDFYPGAVTVAWKADSSPVKAGVETTTPSKQSNNKYAASSYLSLTPEQWKSHRSYSCQVTHEGSTVEKTVAPTECS	251	binds	–	17.8	33.1	–	–	–
PR005398 (bispecific antibody, human IgG1, lambda, L234A L235A, structure 1; CD3 Fab from PR003886, CLDN18.2 VH from PR007242; LALA) EVQLVESGGGLVQPGGSLRLSCAASGFTFSSYWMHWVRQVPGKGLVWVSRINFDSSRTIYADSVKGRFTISRDNAKNTLYLQMNSLRAEDTAVYYCARGEDHDILTGYPIRGQGTTVTVSSGGGGSGGGGSGGGGSEVQLVESGGGLVQPGGSLRLSCAASGFTFSSYWMHWVRQVPGKGLVWVSRINFDSSRTIYADSVKGRFTISRDNAKNTLYLQMNSLRAEDTAVYYCARGEDHDILTGYPIRGQGTTVTVSSASEPKSSDKTHTCPPCPAPEAAGGPSVFLFPPKPKDTLMISRTPEVTCVVVDVSHEDPEVKFNWYVDGVEVHNAKTKPREEQYNSTYRVVSVLTVLHQDWLNGKEYKCKVSNKALPAPIEKTISKAKGQPREPQVCTLPPSREEMTKNQVSLSCAVKGFYPSDIAVEWESNGQPENNYKTTPPVLDSDGSFFLVSKLTVDKSRWQQGNVFSCSVMHEALHNHYTQKSLSLSPGK heavy: not shown light: QAVVTQEPSLTVSPGGTVTLTCRSSTGAVTTSNYANWVQQKPGQAPRGLIGGTNKRAPWTPARFSGSLLGDKAALTLLGAQPEDEAEYFCALWYSNLWVFGGGTKLTVLGQPKAAPSVTLFPPSSEELQANKATLVCLISDFYPGAVTVAWKADSSPVKAGVETTTPSKQSNNKYAASSYLSLTPEQWKSHRSYSCQVTHEGSTVEKTVAPTECS	9	–	19.4	18.3	20.4	binds	–	–
PR005422 (bispecific antibody, human IgG1, lambda, L234A L235A, structure 1; CD3 Fab from PR003886, CLDN18.2 VH from PR007247; LALA) EVQLVESGGGLVQPGGSLRLSCAASGFTFSSYWMYWVRQVPGKGLVWVSHINPLGSTTQYADSVKGRFTISRDNAKNMLYLQMNSLRAEDTAVYYCARDFPVLGGSHFDFQHWGQGTLVTVSSGGGGSGGGGSGGGGSEVQLVESGGGLVQPGGSLRLSCAASGFTFSSYWMYWVRQVPGKGLVWVSHINPLGSTTQYADSVKGRFTISRDNAKNMLYLQMNSLRAEDTAVYYCARDFPVLGGSHFDFQHWGQGTLVTVSSASEPKSSDKTHTCPPCPAPEAAGGPSVFLFPPKPKDTLMISRTPEVTCVVVDVSHEDPEVKFNWYVDGVEVHNAKTKPREEQYNSTYRVVSVLTVLHQDWLNGKEYKCKVSNKALPAPIEKTISKAKGQPREPQVCTLPPSREEMTKNQVSLSCAVKGFYPSDIAVEWESNGQPENNYKTTPPVLDSDGSFFLVSKLTVDKSRWQQGNVFSCSVMHEALHNHYTQKSLSLSPGK heavy: not shown light: QAVVTQEPSLTVSPGGTVTLTCRSSTGAVTTSNYANWVQQKPGQAPRGLIGGTNKRAPWTPARFSGSLLGDKAALTLLGAQPEDEAEYFCALWYSNLWVFGGGTKLTVLGQPKAAPSVTLFPPSSEELQANKATLVCLISDFYPGAVTVAWKADSSPVKAGVETTTPSKQSNNKYAASSYLSLTPEQWKSHRSYSCQVTHEGSTVEKTVAPTECS	21.9	–	–	313	–	binds	–	–
PR005521 (bispecific antibody, third chain is CD3 VH-CH1; PR001848 / PR004533; LALA) chain 1: EVQLVESGGGLVQPGGSLRLSCAASGFTFSSYWMHWVRQVPGKGLVWVSRINSDGSRTIYADSVKGRFTISRDNAKNTLYLQMNSLRAEDTAVYYCARGEDHDILTGYPIRGQGTTVTVSSGGGGSGGGGSGGGGSEVQLVESGGGLVQPGGSLRLSCAASGFTFSSYWMHWVRQVPGKGLVWVSRINSDGSRTIYADSVKGRFTISRDNAKNTLYLQMNSLRAEDTAVYYCARGEDHDILTGYPIRGQGTTVTVSSASEPKSSDKTHTCPPCPAPEAAGGPSVFLFPPKPKDTLMISRTPEVTCVVVDVSHEDPEVKFNWYVDGVEVHNAKTKPREEQYNSTYRVVSVLTVLHQDWLNGKEYKCKVSNKALPAPIEKTISKAKGQPREPQVCTLPPSREEMTKNQVSLSCAVKGFYPSDIAVEWESNGQPENNYKTTPPVLDSDGSFFLVSKLTVDKSRWQQGNVFSCSVMHEALHNHYTQKSLSLSPGK chain 2: not shown chain 3: EVQLLESGGGLVQPGGSLRLSCAASGFTFSTYAMNWVRQAPGKGLEWVSRIRSKYNNYATYYADSVKDRFTISRDDSKSTLYLQMNSLRAEDTAVYYCVRHGNFGNSYVSWFAYWGQGTLVTVSSASTKGPSVFPLAPSSKSTSGGTAALGCLVKDYFPEPVTVSWNSGALTSGVHTFPAVLQSSGLYSLSSVVTVPSSSLGTQTYICNVNHKPSNTKVDKKVEPKSC	73.9	–	13.9	41	–	–	binds	no binding
